Assay results published in patent publication US7214517B2, “α1,2-fucosyltransferase and DNA encoding the same” (Kyowa Hakko Kogyo Co., Ltd., priority 2001, dated 2007).

Columns and labels:
[1] = Production of fucosyllactose in the presence or absence of GDP (feedback inhibition, Example 8); type: biochemical; conditions: conclusion from Table 2
Method: (§1) Escherichia coli DH5α/pHMFT80 obtained in Example 5 was inoculated on 8 ml of LB medium [containing 10 g/l bacto tryptone (manufactured by Difco), 10 g/l yeast extract (manufactured by Difco) and 5 g/l NaCl] containing 50 μg/ml ampicillin in a test tube, and cultured at 30° C. for 12 hours. The culture was inoculated into 8 ml of LB medium containing 50 μg/ml ampicillin, with an inoculum size of 5%, and cultured at 30° C. for 2 hours. Then, isopropyl-β-D-thiogalactopyranoside was added thereto at a final concentration of 1 mmol/l, and further cultured at 30° C. for 8 hours. Wet cells were obtained by centrifuging 1 ml of the culture. Since the wet cells can be stored at −20° C., if necessary, it was able to use them by thawing-prior to use.
(§2) The reaction was carried out at 32° C. for 9 hours in 0.1 ml of a reaction solution composed of the wet cells of Escherichia coli DH5α/pHMFT80 prepared from 1 ml of the culture, 50 mmol/l of a citrate buffer (pH 7.0), 10 mmol/l MnCl2, 10 mmol/l lactose, 10 mmol/l GDP-fucose and 4 g/l Nymeen S-215.
Fucosyllactose was produced in a similar manner described in Example 7 in the presence or absence of 5 mmol/l guanosine 5′-diphosphate (GDP) using lactose as an acceptor carbohydrate.

[2] = Production of fucose-containing carbohydrate from different acceptor carbohydrates, wet cells as enzyme source (Example 7); type: biochemical; conditions: conclusion from Table 1
Method: as §1, §2
• Column: CarboPAC PA10 • Eluent:. A; H2O, B; 500 mmol/l NaOH • Gradient: Concentration of the eluent B at 0 minute is adjusted to 8% and increased to 20% spending 21 minutes. • Detector: Pulsed amperometry detector
Escherichia coli DH5α/pHMFT80 and Escherichia coli DH5α/pHPFT80 respectively obtained in. […]

B1: Helicobacter mustelae-derived α1,2-fucosyltransferase: Protein comprising the amino acid sequence of SEQ ID NO:1, from Helicobacter mustelae ATCC 43772 (protein, listed as Helicobacter mustelae)
chain: MDFKIVQVHGGLGNQMFQYAFAKSLQTHLNIPVLLDTTWFDYGNRELGLHLFPIDLQCASAQQIAAAHMQNLPRLVRGALRRMGLGRVSKEIVFEYMPELFEPSRIAYFHGYFQDPRYFEDISPLIKQTFTLPHPTEHAEQYSRKLSQILAAKNSVFVHIRRGDYMRLGWQLDISYQLRAIAYMAKRVQNLELFLFCEDLEFVQNLDLGYPFVDMTTRDGAAHWDMMLMQSCKHGIITNSTYSWWAAYLIKNPEKIIIGPSHWIYGNENILCKDWVKIESQFETKS
sensitivity to feedback inhibition by GDP compared to Helicobacter pylori-derived α1,2-fucosyltransferase [1]: more insensitive to feedback inhibition by GDP | activity compared to Helicobacter pylori-derived α1,2-fucosyltransferase [2]: higher activity | substrate specificity compared to Helicobacter pylori-derived α1,2-fucosyltransferase [2]: higher substrate specificity to lactose
